Measurements: US20140112930A1 (published 2014)

T1: wild-type human Ang-2 (hAng-2-WT) (human, UniProt O15123 19-496)
T1 construct: called full-length wild-type; also called Full-length wild-type human Ang-2
T1 sequence: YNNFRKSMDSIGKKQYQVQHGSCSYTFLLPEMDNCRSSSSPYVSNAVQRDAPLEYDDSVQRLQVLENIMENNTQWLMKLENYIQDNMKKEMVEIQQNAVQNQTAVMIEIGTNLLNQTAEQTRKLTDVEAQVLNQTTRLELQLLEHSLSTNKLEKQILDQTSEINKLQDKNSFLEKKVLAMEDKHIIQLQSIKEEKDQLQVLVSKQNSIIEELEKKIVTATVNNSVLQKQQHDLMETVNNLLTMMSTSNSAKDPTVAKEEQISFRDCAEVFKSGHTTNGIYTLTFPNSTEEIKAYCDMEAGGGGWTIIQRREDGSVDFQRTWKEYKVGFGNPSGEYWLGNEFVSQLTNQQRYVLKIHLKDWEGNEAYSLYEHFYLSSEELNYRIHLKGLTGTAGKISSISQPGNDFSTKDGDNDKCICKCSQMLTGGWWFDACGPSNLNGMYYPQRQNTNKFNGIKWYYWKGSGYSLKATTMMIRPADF

T2: Monomeric hAng-2FD (human, UniProt O15123 282-496)
T2 construct: also called fibrinogen-like domain of human Ang2; Human Ang-2FD
T2 sequence: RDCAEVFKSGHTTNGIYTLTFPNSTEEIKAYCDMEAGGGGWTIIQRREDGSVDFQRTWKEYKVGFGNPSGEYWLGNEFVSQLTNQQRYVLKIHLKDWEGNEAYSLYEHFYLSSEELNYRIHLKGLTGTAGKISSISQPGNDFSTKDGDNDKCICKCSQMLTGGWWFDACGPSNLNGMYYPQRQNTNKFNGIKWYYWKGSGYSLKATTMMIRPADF


Assays:
[1] = molecular target: T3, human bow-Ang-2 tetrameric construct (hBA2) (human); assay: SPR, captured Ab
T3 construct: also called human BA2; hBA2-hIgG1

[2] = molecular target: T4, Dimeric Human Ang-2FD conjugated to human IgG1 (human); assay: SPR, captured Ab, RT
T4 construct: also called Human Ang-2FD-hFc; hAng-2FD-hFc
Description: (§1) Antibody was captured on a goat anti-mouse IgG polyclonal antibody surface, a goat anti-human κ polyclonal antibody (Southern Biotech, Birmingham, Ala.) surface or a goat anti-human IgG polyclonal antibody (Jackson Immuno Research Lab, West Grove, Pa.) surface created through direct amine coupling to a BIACORE™ CM5 sensor chip to form a captured antibody surface. […] Antigen-antibody binding and dissociation were monitored in real time at room temperature. Kinetic analysis was performed to calculate KD and half-life of antigen/antibody complex dissociation.

[3] = molecular target: T5, Dimeric Monkey Ang-2FD conjugated to human IgG1 (monkey (Macca fascicularis); human); assay: SPR, captured Ab, RT
T5 construct: also called Monkey Ang-2FD-hFc
Description: as §1

[4] = molecular target: T6, Dimeric Mouse Ang-2FD conjugated to human IgG1 (mouse (Mus musculus); human); assay: SPR, captured Ab, RT
T6 construct: also called Mouse Ang-2FD-hFc
Description: as §1

[5] = molecular target: T1, wild-type human Ang-2 (hAng-2-WT); assay: SPR, captured Ab
Monomeric hAng-2FD = molecular target: T2, Monomeric hAng-2FD; assay: SPR, captured Ab
[6] = molecular target: T4, Dimeric Human Ang-2FD conjugated to …; assay: competition ELISA, 16.67 nM Ab, coated hTie-2-mFc
Description: (§2) The plate was then blocked with PBS (Irvine Scientific, Santa Ana, Calif.) containing 0.5% BSA (Sigma-Aldrich Corp., St. Louis, Mo.) for one hour at room temperature. […] Human, mouse or monkey Ang-2FD protein conjugated to human IgG (Ang-2FD-hFc) were added to final concentrations of 2 nM, 8 nM, or 2 nM respectively and incubated for one hour at room temperature. The antibody/Ang-2FD-Fc mixture was then added to the plate containing hTie-2-mFc and incubated for one hour at room temperature. Detection of Ang-2FD-hFc bound to hTie-2-mFc protein was determined with Horse-Radish Peroxidase (HRP) conjugated to a-human IgG antibody (Jackson Immuno Research Lab, West Grove, Pa.) and developed by standard colorimetric response using tetramethylbenzidine (TMB) substrate (BD Biosciences, San Jose, Calif.). Absorbance was read at OD₄₅₀ for 0.1 sec.

[7] = molecular target: T5, Dimeric Monkey Ang-2FD conjugated to …; assay: competition ELISA, 16.67 nM Ab, coated hTie-2-mFc
Description: as §2

[8] = molecular target: T6, Dimeric Mouse Ang-2FD conjugated to …; assay: competition ELISA, 16.67 nM Ab, coated hTie-2-mFc
Description: as §2

Mouse Ang-2FD-hFc = molecular target: T7, Mouse Ang-2FD-hFc (mouse (Mus musculus)); assay: blocking ELISA, 16.67 nM antibody, Ang-2FD-hFc to coated hTie-2-mFc
T7 construct: also called dimeric mouse Ang-2FD
Description: as §2

Binder	Kd [1] [nM]	T1/2 [1] [min]	Kd [2] [nM]	T1/2 [2] [min]	Kd [3] [nM]	T1/2 [3] [min]	Kd [4] [nM]	T1/2 [4] [min]	Kd [5] [nM]	T1/2 [5] [min]	Kd (Monomeric hAng-2FD) [nM]	T1/2 (Monomeric hAng-2FD) [min]	Percent Blocking of Ang-2FD Binding to Tie-2 [6] [%]	Percent Blocking of Ang-2FD Binding to Tie-2 [7] [%]	Percent Blocking of Ang-2FD Binding to Tie-2 [8] [%]	Percent Blocking of Ang-2FD Binding to Tie-2 (Mouse Ang-2FD-hFc) [%]
H1H696P (antibody, V domains shown) VH: QVQLVESGGGLVKPGGSLRLSCAASGFTFSDYYMSWIRQAPGKGLEWVSYISYTGRTIYYADSVKGRFTISRDNAKNSLYLQMNSLRAEDTAVYYCARDTDYGDFFDYWGQGTLVTVSS VL: DIQMTQSPSSLSASVGDRVTITCRASQGISNYLAWFQQKPGKAPKSLIYAASSLQSGVPSKFSGSGSGTDFTLTISSLQPEDFATYYCQQYNSYPLTFGGGTKVEIK	0.111	51.5	0.289	38.8	0.354	36.6	0.402	37.6	0.0403	643	38.4	0.2	–	–	–	–
H2M750N (antibody, V domains shown) VH: QVKLVESGGGVVQPGRSLRVSCAASGFTFSSYGMHWVRQAPGKGLEWLAIIWYDGDNKYYSDSVKGRFTISRDNSKNTLYLQMNSLRAEDTAEYYCVRDASIASRFLDYWGQGTLVTVSS VL: DIQMTQSPSSLSASIGDRVTITCRATQDINNYLAWFQQKPGKAPKSLIYATSNLQSGVPSKFSGSGSGTDYTLTISSLQPEDFSTYYCQQYHSYPLTFGGGTKVEIK	–	–	0.362	32.2	1.47	23	–	–	0.0408	991	4.42	21.5	99.4	97.4	53.7	–
H1H695P (antibody, V domains shown) VH: QVQLVESGGGVVQPGRSLRLSCAASGFTFSSYGMHWVRQAPGKGLEWVAVMWYDETNKYYADSVKGRFTISRDNSKNTLYLQMNSLRAEDTAVYYCARYSGYEDYYHGMDVWGQGTTVTVS VL: EIVMTQSPATPSVSPGERATLSCRASQSISSNLAWYQQKPGQAPRLLIYGASTRATGIPARFSGSGSGTEFTLTISSLQSEDFAVYYCQHYNNWITFGQGTRLEIK	0.0401	254	0.245	147	0.44	84.1	0.347	124	0.0311	1770	1.12	–	–	–	–	–
H1H685P (antibody, human IgG1, V domains shown, Fully human antibody, human IgG1) VH: EVQLVESGGGLVQPGGSLRLSCAASGFTFSSYDIHWVRQATGKGLEWVSAIGPAGDTYYPGSVKGRFTISRENAKNSLYLQMNSLRAGDTAVYYCARGLITFGGLIAPFDYWGQGTLVTVSS VL: EIVLTQSPGTLSLSPGERATLSCRASQSVSSTYLAWYQQKPGQAPRLLIYGASSRATGIPDRFSGSGSGTDFTLTISRLEPEDFAVYYCQHYDNSQTFGQGTKVEIK	–	–	–	–	–	–	–	–	–	–	–	–	–	–	–	97.1
H1H690P (antibody, V domains shown) VH: EVQLVESGGGLVQPGESLRLSCAASGFTFSSYAMSWVRQGPGKGLEWVSSITGSGDTTYYADSVKGRFTISRDNSKNTLYLHMNSLRAEDTAVYYCAKDFLDYSTYLAFDLWGQGTMVTVSS VL: EIVLTQSPATLSLSPGERATLSCRASQSVSSYLTWYQQKPGQAPRLLSYDASNRATGIPARFSGSGSGTDFTLTISSLEPEDFAVYYCQQRSNWPLTFGGGTKVEIK	0.0179	299	0.079	126	0.0556	195	0.0913	105	0.0124	1570	0.594	25.2	–	–	–	–
H1H693P (antibody, V domains shown) VH: EVQLVESGGGLVQPGESLRLSCAASGFTFSSYAMSWVRQGPGKGLEWVSSISGSGGTTYYADSVEGRFTISRDNSKNTLYLHMNSLRAEDTAVYYCAKDFLDYSTYLAFDLWGQGTMVTVSS VL: DIQMTQSPSSVSASVGDRVTITCRASQGISSWLAWYQQKPGKAPKLLIYAASSLQSGVPSRFSGSGSGTDFTLTISSLQPEDFATYYCQQANSFPRTFGQGTKVEIK	0.299	28.7	0.5	37.1	1.17	17.6	0.446	63.7	0.425	100	44.8	0.61	–	–	–	–
H1M724N (antibody, V domains shown) VH: QVQLVESGGGVVQPGRSLRLSCAASGFTLSNYGMHWVRQAPGKGLEWVAVIWHDGSNTYYADSVKGRFTISRDNSKNTLYLQMNSLRAEDTAVYYCTREGLDFWSGYYPNWFDPWGQGTLVTVSS VL: DIQMTQSPSSLSASVGDRVTITCRASQGIRNDLGWYQQKPGKAPKRLIYAASNLQGGVPSRFSGSGSGTEFTLTISSLQPEDFAAYYCLQHNIYPLTFGGGTKVEIK	–	–	0.179	42.7	0.73	25.7	0.694	16	0.0331	568	1.75	17.4	99.5	95.2	96.6	–
H1M728N (antibody, V domains shown) VH: EVQLVESGGDLVQPGGSLRLSCTASGFTFSKYWMTWVRQAPGRGLEWVANIKEDGNEKYFLDSVKGRFTISRDNAKDLLFLQMNSLRGEDTAVYYCVRDRGIEVAGPFDYWGQGTLVTVSS VL: DIQMTQSPSTLSASVGDRVTVTCRASQTIINWLAWYQQKPGKAPKLLISKASSLESGVPSRFSGSGSGTEFTLTISSLQPDDFATYYCQQYNRYWTFGQGTMVEIK	–	–	0.137	58.4	1.58	69.5	5.65	9.9	0.0338	725	1.17	33.9	98.5	97.1	83.9	–
H2M730N (antibody, V domains shown) VH: EVQLVESGGGLVQPGGSLRLSCAASGFAFRSYWMTWVRQAPGKGLEWVANIQQDGNDKYYVDSVKGRFTISRDNAKNSLYLQMNSLRAEDTAVYYCARDTGIAEAGPFDYWGQGTLVTVSS VL: DIQMTQSPSTLSASVGDRVSITCRASQTIISWLAWYQQKPGKAPRLLIYKASSLESGVPSRFSGSGSGTEFTLTINSLQPDDFATYYCQQYNRYWTFGQGTKVEIK	–	–	0.21	47	0.842	36.6	–	–	0.0492	519	2.06	24.4	98.9	97.3	55	–
